Molecular target: mutant pp60c-Src tyrosine kinase (SRC 531 mutant, truncated c-Src) (human) (UniProt P12931)
Test: cell-based or functional assay

For “peptide Ala-Glu-Glu-Glu-Ile-Tyr-Gly-Glu-Phe-Glu-Ala-Lys-Lys-Lys-Lys”, the K50% (competitive inhibition of enolase phosphorylation) was 5 µM, the Km (kinase reaction, 32P incorporation into peptide, phosphocellulose paper) was 2 µM and the Vmax (kinase reaction, 32P incorporation into peptide, phosphocellulose paper) was 0.9 µM/mg/min.

— US20040261142A1
